Source: article doi:10.1101/2025.09.11.675649

Molecular target: Amuc1033^6S-GlcNAc (Akkermansia muciniphila) (UniProt B2UQX4)
Assay: SEC-MALS

stoichiometry N: 2
Substance: Amuc1033^6S-GlcNAc (from UniProt B2UQX4 1-581) (enzyme)
